Reference: patent publication US20260092115A1 (Chugai, published 2026)

T1: human FcγRIIb extracellular domain, His-tagged (human, UniProt P31994 43-217)
T1 construct: extracellular domain; also called hFcγR IIb
T1 sequence (looked up): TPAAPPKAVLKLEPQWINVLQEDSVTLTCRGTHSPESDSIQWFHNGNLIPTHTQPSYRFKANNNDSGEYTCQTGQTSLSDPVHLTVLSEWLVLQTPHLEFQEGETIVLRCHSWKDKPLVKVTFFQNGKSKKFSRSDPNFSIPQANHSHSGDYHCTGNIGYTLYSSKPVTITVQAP

T2: human FcγRIIa, type R, extracellular domain, His-tagged (human, UniProt P12318 34-217)
T2 construct: extracellular domain; also called hFcγR IIa R
T2 sequence (looked up): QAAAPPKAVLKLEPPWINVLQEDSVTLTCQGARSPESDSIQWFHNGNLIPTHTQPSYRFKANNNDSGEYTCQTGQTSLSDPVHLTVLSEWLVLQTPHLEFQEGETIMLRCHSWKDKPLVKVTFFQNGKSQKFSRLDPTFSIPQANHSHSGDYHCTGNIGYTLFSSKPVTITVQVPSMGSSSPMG

T3: human FcγRIIa, type H, extracellular domain, His-tagged (human, UniProt P12318 34-217)
T3 construct: extracellular domain; also called hFcγR IIa H
T3 sequence (looked up): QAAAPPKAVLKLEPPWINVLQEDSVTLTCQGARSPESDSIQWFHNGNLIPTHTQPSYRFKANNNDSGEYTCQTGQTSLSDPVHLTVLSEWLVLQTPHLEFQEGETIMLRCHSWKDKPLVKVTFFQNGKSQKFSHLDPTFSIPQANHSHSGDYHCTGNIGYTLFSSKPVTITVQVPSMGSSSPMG


How the values were obtained:
[1] = target: T1, human FcγRIIb extracellular domain, …; assay: SPR Biacore T200, 25C, pH 7.4; FcγRIIb at 1000 nM, corrected by captured antibody
Method: (§1) The interaction between the generated antibodies and human FcγRs was analyzed by the following method using Biacore T200. 50 mM Na-Phosphate, 150 mM NaCl, 0.05% Tween20 (pH 7.4) was used as the running buffer, and the assay was performed at 25° C. For the sensor chips, Series S SA (GE Healthcare) chips onto which CaptureSelect Human Fab-lambda Kinetics Biotin Conjugate (Thermo Fisher Scientific) was immobilized were used. The antibodies of interest were captured onto these chips and each FcγR diluted in the running buffer was allowed to interact with them. Chips were regenerated with 10 mM Glycine-HCl (pH 1.5) and 25 mM NaOH, and assay was performed by repeatedly capturing antibodies. The dissociation constants KD (mol/L) for FcγRs of each antibody were calculated using Biacore T200 Evaluation Software 2.0, using the 1:1 Langmuir binding model for FcγRIa and FcγRIIIa and the steady state affinity model for FcγRIIa. For FcγRIIb, the binding amount of FcγRIIb per unit amount of antibody was calculated by correcting the binding amount of FcγRIIb obtained from the sensorgram obtained by the measurement with the amount of antibody captured onto the chip surface.

[2] = target: T4, human FcγRIIIa, allotype F158, extracellular domain, His-tagged (human, UniProt P08637 17-208); assay: KD of 04H1637-G1m/04L1610-lam1 divided by KD of this antibody; SPR pH 7.4
T4 construct: extracellular domain; also called hFcγR IIIa F
T4 sequence (P08637 17-208): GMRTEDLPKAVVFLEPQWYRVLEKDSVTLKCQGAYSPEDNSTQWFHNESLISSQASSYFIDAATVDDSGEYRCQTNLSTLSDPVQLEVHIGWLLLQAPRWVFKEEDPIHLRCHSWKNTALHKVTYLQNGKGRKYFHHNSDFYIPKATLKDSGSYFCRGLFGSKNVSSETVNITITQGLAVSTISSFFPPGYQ
Method: as §1
(§2) “Relative value to KD between G1m and hFcRn” and “Relative value to KD between G1m and hFcγRs” are values obtained by dividing the KD value of 04H1637-G1m/04L1610-lam1 for hFcRn and for each FcγR by the KD value of each variant, respectively. “Relative binding amount” indicates the value obtained by dividing the binding amount of each variant to FcγRIIb by the binding amount of 04H1637-G1m/04L1610-lam1. […] It was shown that all of the generated heterodimerized antibodies had enhanced binding to FcγRIIa and FcγRIIIa as compared with 04H1637-G1m/04L1610-lam1 which has the constant region of native human IgG1.

[3] = target: T2, human FcγRIIa, type R, extracellular …; assay: as above
Method: as §1, §2

[4] = target: T5, human FcγRIIIa, allotype V158, extracellular domain, His-tagged (human, UniProt P08637 17-208); assay: as above
T5 construct: extracellular domain; also called hFcγR IIIa V
T5 sequence (P08637 17-208 F176V): as the sequence (P08637 17-208) above, with F160V counted along it
Method: as §1, §2

[5] = target: T6, human FcγRIa extracellular domain, His-tagged (human, UniProt P12314 16-292); assay: as above
T6 construct: also called hFcγR Ia
T6 sequence (P12314 16-292): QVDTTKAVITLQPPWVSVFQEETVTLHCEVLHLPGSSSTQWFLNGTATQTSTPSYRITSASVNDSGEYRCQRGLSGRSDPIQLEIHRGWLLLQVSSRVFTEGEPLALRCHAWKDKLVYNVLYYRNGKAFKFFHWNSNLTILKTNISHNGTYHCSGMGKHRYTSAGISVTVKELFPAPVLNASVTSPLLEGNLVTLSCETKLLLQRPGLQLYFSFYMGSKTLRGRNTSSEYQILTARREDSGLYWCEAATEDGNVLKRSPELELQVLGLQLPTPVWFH
Method: as §1, §2

[6] = target: T3, human FcγRIIa, type H, extracellular …; assay: as above
Method: as §1, §2

[7] = target: T1, human FcγRIIb extracellular domain, …; assay: binding amount of this antibody divided by that of 04H1637-G1m/04L1610-lam1; SPR pH 7.4
Method: as §1, §2

Row | Binder | Binding amount [1] | Relative value to KD between G1m and hFcγRs [2] [ratio] | Relative value to KD between G1m and hFcγRs [3] [ratio] | Relative value to KD between G1m and hFcγRs [4] [ratio] | Relative value to KD between G1m and hFcγRs [5] [ratio] | Relative value to KD between G1m and hFcγRs [6] [ratio] | Relative binding amount [7] [ratio]
1 | 04H1637-Kn462/04L1610-lam1//04H1637-H1441/04L1610-lam1 (antibody, human IgG1, lambda, Heterodimerized IgG1 Fc variant; also called 04H1637-Kn462/04L1610-lam1//04H1637-Hl441/04L1610-lam1) heavy 1: QVQLVESGGGLVKPGGSLRLSCAASGFTFSSKTMNWVRQAPGKGLEWVSSISTQSHYIYYAESVRGRFTISRDNAKNSLYLQMNSLRAEDTAVYYCARYGKREDMLWVFDYWGQGTLVTVSSASTKGPSVFPLAPSSKSTSGGTAALGCLVKDYFPEPVTVSWNSGALTSGVHTFPAVLQSSGLYSLSSVVTVPSSSLGTQTYICNVNHKPSNTKVDKKVEPKSCDKTHTCPPCPAPEFQWGPMVFLFPPKPKDVLMISRTPEVTCVVVDVSDEEPEVKFNWYVDGVEVHNAKTKPREEQYNATYRVVSVLPVLHQDWLNGKEYKCKVSNDALPAPIEKTISKAKGQPREPQVCTLPPSRDELTKNQVSLWCLVKGFYPSDIAVEWESNGQPENNYKTTPPVLDSDGSFFLYSKLTVDKSRWQQGNVFSCSVMHEALHNHYTQKSLSLSP heavy 2: QVQLVESGGGLVKPGGSLRLSCAASGFTFSSKTMNWVRQAPGKGLEWVSSISTQSHYIYYAESVRGRFTISRDNAKNSLYLQMNSLRAEDTAVYYCARYGKREDMLWVFDYWGQGTLVTVSSASTKGPSVFPLAPSSKSTSGGTAALGCLVKDYFPEPVTVSWNSGALTSGVHTFPAVLQSSGLYSLSSVVTVPSSSLGTQTYICNVNHKPSNTKVDKKVEPKSCDKTHTCPPCPAPELLAGPSVFLFPPKPKDVLMISRTPEVTCVVVDVSHEEPEVKFNWYVDGVEVHNAKTKPREEQYNATYRVVSVLPVLHQDWLNGKEYKCKVSNDALPAPIEETISKAKGQPREPQVYTLPPSRCELTKNQVSLSCAVKGFYPSDIAVEWESNGQPENNYKTTPPVLDSDGSFFLVSKLTVDKSRWQQGNVFSCSVMHEALHNHYTQKSLSLSP light: QSALTQPPSASGSPGQSVTISCEGPSTGVGDYNWVHWYQQHPGKAPKLMIYFTSKKPSGVPDRFSGSKSGNTASLTVSGLQAEDEADYYCQTYAAPLGPMFGGGTKLTVLGQPKAAPSVTLFPPSSEELQANKATLVCLISDFYPGAVTVAWKADSSPVKAGVETTTPSKQSNNKYAASSYLSLTPEQWKSHRSYSCQVTHEGSTVEKTVAPTECS | 0.013 RU per RU of captured antibody | 79.5 | 9.2 | 45.8 | 0.3 | 20.9 | 1.6
2 | 04H1637-Kn461/04L1610-lam1//04H1637-H1443/04L1610-lam1 (antibody, human IgG1, lambda, Heterodimerized IgG1 Fc variant; also called 04H1637-Kn461/04L1610-lam1//04H1637-Hl443/04L1610-lam1) heavy 1: QVQLVESGGGLVKPGGSLRLSCAASGFTFSSKTMNWVRQAPGKGLEWVSSISTQSHYIYYAESVRGRFTISRDNAKNSLYLQMNSLRAEDTAVYYCARYGKREDMLWVFDYWGQGTLVTVSSASTKGPSVFPLAPSSKSTSGGTAALGCLVKDYFPEPVTVSWNSGALTSGVHTFPAVLQSSGLYSLSSVVTVPSSSLGTQTYICNVNHKPSNTKVDKKVEPKSCDKTHTCPPCPAPEFQWGPMVFLFPPKPKDVLMISRTPEVTCVVVDVSDEEPEVKFNWYVDGVEVHNAKTKPREEQYNATYRVVSVLPVLHQDWLNGKEYKCKVSNDALPAPEEKTISKAKGQPREPQVCTLPPSRDELTKNQVSLWCLVKGFYPSDIAVEWESNGQPENNYKTTPPVLDSDGSFFLYSKLTVDKSRWQQGNVFSCSVMHEALHNHYTQKSLSLSP heavy 2: QVQLVESGGGLVKPGGSLRLSCAASGFTFSSKTMNWVRQAPGKGLEWVSSISTQSHYIYYAESVRGRFTISRDNAKNSLYLQMNSLRAEDTAVYYCARYGKREDMLWVFDYWGQGTLVTVSSASTKGPSVFPLAPSSKSTSGGTAALGCLVKDYFPEPVTVSWNSGALTSGVHTFPAVLQSSGLYSLSSVVTVPSSSLGTQTYICNVNHKPSNTKVDKKVEPKSCDKTHTCPPCPAPELLAGPSVFLFPPKPKDVLMISRTPEVTCVVVDVSHEEPEVKFNWYVDGVEVHNAKTKPREEQYNATYRVVSVLPVLHQDWLNGKEYKCKVSNDALPAPEEETISKAKGQPREPQVYTLPPSRCELTKNQVSLSCAVKGFYPSDIAVEWESNGQPENNYKTTPPVLDSDGSFFLVSKLTVDKSRWQQGNVFSCSVMHEALHNHYTQKSLSLSP light: QSALTQPPSASGSPGQSVTISCEGPSTGVGDYNWVHWYQQHPGKAPKLMIYFTSKKPSGVPDRFSGSKSGNTASLTVSGLQAEDEADYYCQTYAAPLGPMFGGGTKLTVLGQPKAAPSVTLFPPSSEELQANKATLVCLISDFYPGAVTVAWKADSSPVKAGVETTTPSKQSNNKYAASSYLSLTPEQWKSHRSYSCQVTHEGSTVEKTVAPTECS | 0.025 RU per RU of captured antibody | 616 | 10.7 | 226 | 1.2 | 11.1 | 3.1
3 | 04H1637-Kn125/04L1610-lam1//04H1637-H1076/04L1610-lam1 (antibody, human IgG1, lambda, Heterodimerized IgG1 with the Fc variant of WO 2013/002362; also called 04H1637-Kn125/04L1610-lam1//04H1637-Hl076/04L1610-lam1) heavy 1: QVQLVESGGGLVKPGGSLRLSCAASGFTFSSKTMNWVRQAPGKGLEWVSSISTQSHYIYYAESVRGRFTISRDNAKNSLYLQMNSLRAEDTAVYYCARYGKREDMLWVFDYWGQGTLVTVSSASTKGPSVFPLAPSSKSTSGGTAALGCLVKDYFPEPVTVSWNSGALTSGVHTFPAVLQSSGLYSLSSVVTVPSSSLGTQTYICNVNHKPSNTKVDKKVEPKSCDKTHTCPPCPAPEYQWGPMVFLFPPKPKDTLMISRTPEVTCVVVDVSDEEPEVKFNWYVDGVEVHNAKTKPREEQYNATYRVVSVLTVLHQDWLNGKEYKCKVSNKALPAPIEKTISKAKGQPREPQVCTLPPSRDELTKNQVSLWCLVKGFYPSDIAVEWESNGQPENNYKTTPPVLDSDGSFFLYSKLTVDKSRWQQGNVFSCSVMHEALHNHYTQKSLSLSP heavy 2: QVQLVESGGGLVKPGGSLRLSCAASGFTFSSKTMNWVRQAPGKGLEWVSSISTQSHYIYYAESVRGRFTISRDNAKNSLYLQMNSLRAEDTAVYYCARYGKREDMLWVFDYWGQGTLVTVSSASTKGPSVFPLAPSSKSTSGGTAALGCLVKDYFPEPVTVSWNSGALTSGVHTFPAVLQSSGLYSLSSVVTVPSSSLGTQTYICNVNHKPSNTKVDKKVEPKSCDKTHTCPPCPAPELLGGPSVFLFPPKPKDTLMISRTPEVTCVVVDVSHEEPEVKFNWYVDGVEVHNAKTKPREEQYNSTYRVVSVLTVLHQDWLNGKEYKCKVSNDALPMPIEETISKAKGQPREPQVYTLPPSRCELTKNQVSLSCAVKGFYPSDIAVEWESNGQPENNYKTTPPVLDSDGSFFLVSKLTVDKSRWQQGNVFSCSVMHEALHNHYTQKSLSLSP light: QSALTQPPSASGSPGQSVTISCEGPSTGVGDYNWVHWYQQHPGKAPKLMIYFTSKKPSGVPDRFSGSKSGNTASLTVSGLQAEDEADYYCQTYAAPLGPMFGGGTKLTVLGQPKAAPSVTLFPPSSEELQANKATLVCLISDFYPGAVTVAWKADSSPVKAGVETTTPSKQSNNKYAASSYLSLTPEQWKSHRSYSCQVTHEGSTVEKTVAPTECS | 0.007 RU per RU of captured antibody | 406 | 1.6 | 126 | 1.2 | 3.6 | 0.9
